Here are results for 16 sequences from the nanobody polyreactivity screen of Harvey et al. (2022).

The nature of this data set: yeast display, Sf9 membrane polyspecificity reagent, FACS + sequencing; frameworks hold sequencing errors. The gist of the method: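 A synthetic nanobody library was expressed on Saccharomyces cerevisiae BJ5465 by galactose induction for 36–48 hours. The library was stained for 1 hour at 4 °C with 10% biotinylated, detergent-solubilized Sf9 membrane reagent and enriched with streptavidin microbeads before FACS. Low and high (top ~1%) gates were set on anti-HA fluorescence for expression and streptavidin fluorescence for reagent binding, and each polyreactivity label reflects the gate of origin.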
Regarding “QVQLVESGGGLVQAGGSLRLSCAASGLILNYYTMGWYRQAPGKERELVATISSSTGSTYYADSVKGRFTISRDNAKNTVYLQMNSLKPEDTAVYYCAADHWSYWQIYDYWGQGTQVTVSS”, the “polyreactivity (PSR sort gate)” value is “low polyreactivity”. Next, “QVQLVESGGGLVQAGGSHRLSCAASGFILAYYAMGWYRQAPGKERELVASINRSGGSTYYADSVKGRFTISRDNAKNTVYFQMNSLKPEDTAVHYCAHTNRGDGQWWYRYYYWGQGTQVTVSS”: “high polyreactivity”; “QVQLVESGGGLVQAGGSLRLSCAASGRTFDVYAMGWYRQAPGKERELVAAITSGGSTYYADSVKGRFTISRDNAKNTVYLQMNSLKPEDTAVYYCATDVDKSLYDYWGQGTQVTVSS”: “low polyreactivity”; “QVHLVESGGGLVQAGGSLRLSCAASGRTLGGNAMGWYRQAPGKERELDAAITNSASTYADSVKGRFTISRDNAKNTVYLQMNSLKPEDTAVYYCNAPDPSDQHGDYWGQGTQVTVSS”: “low polyreactivity”.

As for “QVQLVESGGGLVQAGGSLRLSCAASGRIFDVYAMGWYRQAHGKERELVARISDGGGSTYYADSVKGRFTISRDNAKNTVYLQMNSLKPEDTAVYYCASGGDLRLDRRFAFVSRGDYWGQGTQVTVSS”, the “polyreactivity (PSR sort gate)” value is given as “low polyreactivity”. Consider “QVQLVESGGGLVQAGGSLLLSCAASGRIFYRYAMGWYRQAPGKERELVAAISRGGSTYYADSVKGRYTISRDNAKNTVYLQMNSLKPEDTAVYYCAKDGYWGYDYWGQGTQVTVSS”, for which the “polyreactivity (PSR sort gate)” value was “high polyreactivity”.

Turning to “QVQLVESGGCLVQAGGSLRLSCAATGIIFDGYAMGWYRQAPGKERELVAAISWSGGSTYYADSVKGRFTISRDNAKNTVYLQMNSLKPEDTAVYYCAAALPGWYHDDYDYWGQGTQVTVSS”, the “polyreactivity (PSR sort gate)” value is reported as “low polyreactivity”. For the sequence “QVQLVESGGGLFQAAGSLRLSCAASGLTFAYNAMGWYRQAPGKERELDAEISKRGGSTFYADSVKGRFTLSHVNAKNTVYLQMNSLKPEDTAVYYCARGSYPYRSFWLTSDDWGQGTQVTVSS”, the “polyreactivity (PSR sort gate)” value was “high polyreactivity”. Turning to “QVQLVESGGGLVQAGGSLRLSCAASGRIFPYNAMGWYRPAPGKEREFVAAITWSGGSTYYADSVKGRFTISRDNAKNTVYLQMNCLKPEDTAVYYCAIRYPWQYNYWGQGTQVTVSS”, the “polyreactivity (PSR sort gate)” value is on record as “high polyreactivity”.

Turning to “QVQLVESGGGLVQAGGSLRLSCAASGSIFRNYAMGWYRQAPGKEREFVAAISGGGGSTYYADSVKGRFTISRDNAKNTVYLQMNSLKPEDTAVYYCARVRYYGALKLYAYDHWGQGTQVTVSS”, the “polyreactivity (PSR sort gate)” value was “high polyreactivity”. As for “QVQLVESGGGLVQAGGSLRLSCAASGFIFWLYAMGWYRQAPGKERELVAAISRSGGRTYYADSVKGRFTISRDNAKITVYLQMNSLKPEDTAVYYFAKVDNYKSYPYDYWGQGTQVTVSS”, the “polyreactivity (PSR sort gate)” value is on record as “high polyreactivity”. As to “QVQLVESGGGLVQAGGSLRLSCAASARTFWAYAMGWYRQATGKEREWVAAITSSGTRTYYADSVKGRFTISRDNAKNTVYLKMNSLKPEDTAGYYCAAERIWLAHAYPTYVANDYWGQGTQVTVSS”, the “polyreactivity (PSR sort gate)” value is reported as “high polyreactivity”.

Take “QVQDVESGGGLVQAGGSLRLSCAAYGFIFYSYAMGWYRQAPGKERELVAAISTGDGSTTFADSVKGRFTISRDNAKNSVYLQMNSLKPEDTAVYYCNVKYRACYRTDFEYWGQGTQVTVSS”: the “polyreactivity (PSR sort gate)” value is “low polyreactivity”. In the case of “QVQLVESGGGLVQAGGSLRLSCAASGSILHVYAMGWYRQAPGKERELVAAISKSGTRTYYAVSVKGRFTISRDNAKNTVYLQMNRLKPEDTAVYYCAAERSQYVYSTDPYGYDYWGQGTQVTVSS”, the “polyreactivity (PSR sort gate)” value is reported as “high polyreactivity”. Next, “QVQLVESGGGLVQAGGSLRLSCAASGSTFGYYTMGWYRQAPGKERELVASIDVSGDSTSYADSVKGRLTISRDNAKNTVYLQMNSLKPEDTAVYYCNTGRYPTSPTHNYWGQGTQVTVSS”: “low polyreactivity”; “QVQLEESGGGLVQAGGSLRLSCAASGSTFYIYAMGSYRQAPGKERELVARMSGSGGSTYYADSVKGRFTISRDNAKNTVYLQMNSVKPEDTAVYYCAADDIYKYYQYYAFPYYRYDYWGQGTQVTVSS”: “low polyreactivity”.
